Article PMC3294036
Several values for one entry are separate records, joined by “and”; a condition that tells them apart may be missing. Identical values can stand only once.

Key:
Test in all cases: FRET or BRET
[1] = target: AKAP79-CFP I338P variant (PPAIIIT), full-length (human) (UniProt P24588)
[2] = target: AKAP79-CFP, wildtype, full-length (human) (UniProt P24588)
[3] = target: ATTO425-AKAP79(333–408), wildtype (PIAIIIT) (human) (UniProt P24588)
[4] = target: ATTO425-AKAP79(333–408) I338P variant (PPAIIIT) (human) (UniProt P24588)
ATTO425-AKAP79(333–408) I338P variant (PPAIIIT) (human), sequence (P24588 333-408 I338P): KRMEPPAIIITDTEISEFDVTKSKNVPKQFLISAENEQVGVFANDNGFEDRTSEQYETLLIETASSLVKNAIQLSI

ATTO425-AKAP79(333–408), wildtype (PIAIIIT) (human), sequence (P24588 333-408): as the sequence (P24588 333-408 I338P) above, with P6I counted along it
AKAP79-CFP, wildtype, full-length (human), sequence (P24588 whole entry): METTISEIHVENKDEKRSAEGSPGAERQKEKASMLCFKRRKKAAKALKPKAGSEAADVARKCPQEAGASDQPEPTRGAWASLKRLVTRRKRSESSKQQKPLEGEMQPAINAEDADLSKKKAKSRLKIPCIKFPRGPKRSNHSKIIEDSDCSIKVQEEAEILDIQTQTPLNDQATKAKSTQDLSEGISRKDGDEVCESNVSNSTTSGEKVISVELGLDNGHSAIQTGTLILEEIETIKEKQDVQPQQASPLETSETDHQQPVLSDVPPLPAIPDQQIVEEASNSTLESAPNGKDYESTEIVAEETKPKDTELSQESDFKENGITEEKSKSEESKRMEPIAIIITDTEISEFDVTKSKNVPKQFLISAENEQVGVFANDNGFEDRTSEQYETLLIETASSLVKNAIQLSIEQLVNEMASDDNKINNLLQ
AKAP79-CFP I338P variant (PPAIIIT), full-length (human), sequence (P24588 whole entry I338P): as the sequence (P24588 whole entry) above, with I338P counted along it

CNAα-YFP (from UniProt Q08209 1-521) (enzyme)
corrected YFP/CFP fluorescence intensity ratio (treated as 1:1 complex) [1]: 8.1 | corrected YFP/CFP fluorescence intensity ratio (treated as 2:1 complex) [1]: 7.1

CNAα-YFP (from UniProt Q08209 1-521) (enzyme; other documents disagree on this pair)
corrected YFP/CFP fluorescence intensity ratio (treated as 2:1 complex) [2]: 6.1 | stoichiometry N [2]: 1

rhodamine-CN (calcineurin labelled with tetramethylrhodamine acceptor) (from UniProt Q08209;P63098) (complex)
Kd [3]: 400 nM and 300 nM | koff [3]: 9.96 s⁻¹ | half-time of dissociation [4]: 163 ms
